From article PMC6447045 (Nature chemical biology, 2019)

T1: His-tagged NPAS3 (neuronal PAS domain protein 3) (UniProt Q9QZQ0 56-455)
T1 sequence (looked up): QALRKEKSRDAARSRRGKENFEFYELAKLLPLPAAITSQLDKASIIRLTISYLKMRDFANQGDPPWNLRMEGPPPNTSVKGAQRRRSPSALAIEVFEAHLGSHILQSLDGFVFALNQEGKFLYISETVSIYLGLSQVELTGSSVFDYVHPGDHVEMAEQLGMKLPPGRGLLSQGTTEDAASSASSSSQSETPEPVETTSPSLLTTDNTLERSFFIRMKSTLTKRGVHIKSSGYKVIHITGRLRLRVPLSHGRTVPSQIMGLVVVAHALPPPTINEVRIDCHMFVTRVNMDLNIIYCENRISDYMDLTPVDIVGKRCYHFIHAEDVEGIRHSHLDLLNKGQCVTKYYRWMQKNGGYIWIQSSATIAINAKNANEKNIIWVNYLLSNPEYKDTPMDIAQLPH

B1: chimeric ARNT-GFP protein (ARNT residues 82–470 fused to Aequorea GFP) (domain or fragment)
chain: not shown
B2: HIF-2α mutant M252A (3–361), His-tagged (domain or fragment)
chain: not shown
B3: His-tagged HIF-1α (domain or fragment)
chain: not shown
B4: mouse HIF-2α bHLH-PAS-A-PAS-B region (3–361), His-tagged (domain or fragment)
chain: not shown
B5: HIF-2α G323E (3–361), His-tagged (domain or fragment)
chain: not shown

Experiments:
Assay in all cases: FRET or BRET
[1] = target: T1, His-tagged NPAS3 (neuronal PAS domain …)
[2] = target: B1
[3] = target: ARNT F446L-GFP (ARNT residues 82–470 fused to Aequorea GFP) (mouse, UniProt P53762 82-470, F446L)
Sequence of ARNT F446L-GFP (ARNT residues 82–470 fused to Aequorea GFP) (P53762 82-470 F446L): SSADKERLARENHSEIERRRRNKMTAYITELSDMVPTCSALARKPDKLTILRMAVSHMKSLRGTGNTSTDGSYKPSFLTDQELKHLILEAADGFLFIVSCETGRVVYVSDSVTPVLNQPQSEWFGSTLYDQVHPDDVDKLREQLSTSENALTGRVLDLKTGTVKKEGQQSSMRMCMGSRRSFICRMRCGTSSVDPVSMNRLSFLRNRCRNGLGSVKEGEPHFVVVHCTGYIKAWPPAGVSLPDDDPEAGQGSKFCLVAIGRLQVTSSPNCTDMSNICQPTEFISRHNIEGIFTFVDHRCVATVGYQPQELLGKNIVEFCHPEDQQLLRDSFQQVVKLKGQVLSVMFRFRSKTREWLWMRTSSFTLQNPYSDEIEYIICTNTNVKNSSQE

| Kd [1] | Kd [2] | Kd [3] | Binder |
| --- | --- | --- | --- |
| 8.6 nM | – | – | B1 |
| – | 1.4 nM | – | B2 |
| – | 11.7 nM | – | B3 |
| – | 29.1 nM | ~0.8 nM | B4 |
| – | ~10.5 nM | – | B5 |
